Measurements as given in paper PMC7171158.

Target: NusA-AR2^D443C labeled with fluorescein-5-maleimide (E. coli) (UniProt P0AFF6)
Assay: fluorescence polarisation; fluorescence anisotropy; 25 nM fluorescein-labeled NusA-AR2^D443C with increasing unlabeled protein; 25 °C; 50 mM Na-P pH 6.5, 100 mM NaCl, 150 mM glucose, 5 mM DTT, 0.05% Tween; two-state binding model

C-terminal domain of the RNA polymerase α subunit (αCTD) (domain or fragment)
Kd: 8 µM
